# T1: human DLK1 long form (isoform 1, DLK1-FL) fused to mGFP, overexpressed on HEK293T cells (human, UniProt P80370 24-383)
# T1 construct: also called HEK293T DLK1 mGFP G06 (long form); DLK-FL; not shown: mGFP fluorescent protein fused to DLK1
# T1 sequence: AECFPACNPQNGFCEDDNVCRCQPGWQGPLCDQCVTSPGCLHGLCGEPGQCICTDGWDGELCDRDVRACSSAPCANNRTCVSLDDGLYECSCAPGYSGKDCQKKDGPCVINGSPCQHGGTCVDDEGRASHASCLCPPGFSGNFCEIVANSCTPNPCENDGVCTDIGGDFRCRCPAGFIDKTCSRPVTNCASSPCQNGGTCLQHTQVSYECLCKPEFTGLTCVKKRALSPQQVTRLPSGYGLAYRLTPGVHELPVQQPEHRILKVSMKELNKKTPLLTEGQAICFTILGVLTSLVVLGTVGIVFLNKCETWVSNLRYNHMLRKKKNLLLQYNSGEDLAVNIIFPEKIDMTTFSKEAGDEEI
# T2: recombinant fusion protein of human DLK1 extracellular domain (ECD) and monomeric immunoglobulin Fc domain … (human, UniProt P80370 24-303)
# T2 construct: also called human DLK1 ECD-mFc fusion protein; not shown: monomeric immunoglobulin Fc domain (mFc)
# T2 sequence: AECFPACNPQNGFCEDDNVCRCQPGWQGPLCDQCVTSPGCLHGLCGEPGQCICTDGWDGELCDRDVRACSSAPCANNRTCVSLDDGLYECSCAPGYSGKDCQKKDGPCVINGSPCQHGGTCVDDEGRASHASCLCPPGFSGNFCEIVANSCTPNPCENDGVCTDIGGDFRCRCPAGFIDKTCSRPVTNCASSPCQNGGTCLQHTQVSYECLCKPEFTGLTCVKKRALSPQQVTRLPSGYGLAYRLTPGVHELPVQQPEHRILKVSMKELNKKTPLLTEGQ
# T3: human DLK1 short form (isoform 2, DLK1-MB) fused to mGFP, expressed on HEK293T cells (human, UniProt P80370 24-383)
# T3 sequence: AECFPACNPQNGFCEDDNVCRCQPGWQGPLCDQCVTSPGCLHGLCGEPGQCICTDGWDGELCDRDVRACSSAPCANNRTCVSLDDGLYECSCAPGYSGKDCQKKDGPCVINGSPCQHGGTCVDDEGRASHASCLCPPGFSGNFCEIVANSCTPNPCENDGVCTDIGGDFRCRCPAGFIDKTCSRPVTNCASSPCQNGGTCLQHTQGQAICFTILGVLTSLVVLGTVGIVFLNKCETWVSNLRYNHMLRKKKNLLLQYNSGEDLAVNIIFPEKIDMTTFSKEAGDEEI
# T4: monkey DLK1 fused to mGFP, overexpressed on HEK293T cells (monkey (crab-eating macaque), UniProt A0A2K5TMQ6 24-383)
# T4 construct: whole, on cells; also called crab-eating macaque DLK1; not shown: mGFP fluorescent protein fused to DLK1
# T4 sequence: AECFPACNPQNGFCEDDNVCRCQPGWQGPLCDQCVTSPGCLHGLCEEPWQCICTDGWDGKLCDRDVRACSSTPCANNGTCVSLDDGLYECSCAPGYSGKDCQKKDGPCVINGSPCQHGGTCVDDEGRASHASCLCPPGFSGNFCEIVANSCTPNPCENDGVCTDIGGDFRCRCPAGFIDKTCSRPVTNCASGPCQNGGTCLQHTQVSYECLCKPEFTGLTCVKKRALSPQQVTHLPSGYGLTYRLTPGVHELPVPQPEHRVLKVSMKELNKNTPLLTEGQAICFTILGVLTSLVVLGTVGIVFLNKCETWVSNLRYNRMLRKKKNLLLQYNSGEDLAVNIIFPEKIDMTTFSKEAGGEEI
# Assays:
# [1] = target: T1, human DLK1 long form (isoform 1, …); assay: KinExA on cells, block Cross Reactivity to Three Tox Models - KD by KinExA (nM), row HEK293T Human DLK1mGFP G05
# [2] = target: T2, recombinant fusion protein of human …; assay: ELISA on recombinant DLK1 ECD-mFc
# [3] = target: T1, human DLK1 long form (isoform 1, …); assay: KinExA on cells, row HEK293 DLK1-mGFP G05 Cells
# [4] = target: T3, human DLK1 short form (isoform 2, …); assay: cell-based or functional assay
# [5] = target: T1, human DLK1 long form (isoform 1, …); assay: KinExA on HEK293T DLK1mGFP Human Clone G06 cells detached by Versene; Error% 3.83; 95% CI 0.455nM - 2.19nM; equilibrium curves 500pM, 20nM
# [6] = target: T2, recombinant fusion protein of human …; assay: ELISA with human DLK1 ECD-mFc fusion protein
# [7] = target: T2, recombinant fusion protein of human …; assay: Octet384 binding kinetics using recombinant protein DLK1 ECD-mFc, row Ka (1/Ms)
# [8] = target: T2, recombinant fusion protein of human …; assay: Octet384 binding kinetics using recombinant protein DLK1 ECD-mFc
# [9] = target: T4, monkey DLK1 fused to mGFP, …; assay: KinExA on cells, row HEK293T Monkey DLK1mGFP mass
# [10] = target: T2, recombinant fusion protein of human …; assay: Octet384 binding kinetics using recombinant protein DLK1 ECD-mFc, row Kdis (1/s)
EC50 [2] [nM],Kd [3] [nM],"ADCC reporter assay: NFAT activation (Lucia luciferase) in Jurkat-Lucia NFAT-CD16 effector cells, EC50 [4] [mg/L]",Kd [5] [nM],EC50 [6] [nM],kon [7] [M⁻¹ s⁻¹],Kd [8] [nM],Kd [9] [nM],koff [10] [s⁻¹],fold lower binding affinity (ELISA EC50) than 04-0561-f1 and 04-0562-h10 [6] [fold],Binder,Kd [1] [nM]
0.684,1.11,~0.101,1.11,~0.5,48200,0.0186,2.19,0.000898,–,"humanized anti-DLK1 antibody 04-0561-F1 (IgG1) (antibody, V domains shown) VH: QVQLQESGPGLVKPSETLSLTCTVSGFSLSIYSVHWVRQPPGKGLEWIGLIWGGGSTDYNPSLKSRVTISKDTSKNQVSLKLSSVTAADTAVYYCARKEGNYLWFAYWGQGTLVTVSS VL: DIVMTQSPDSLAVSLGERVTMNCKSSQSLLQSSNQKNYLAWYQQKPGQPPKLLVYFASTRESGVPDRFSGSGSGTDFTLTISSVQAEDVAVYYCQQHYSIPLTFGQGTKLEIKR",1.11
10.3,5.34,–,–,–,15500,0.298,9.89,0.00462,~20,"humanized anti-DLK1 antibody 04-0547-h2 (IgG1) (antibody, V domains shown, human kappa (P01834) and human IgG1 (P01857) constant regions) VH: EVQLVESGGGLVQPGGSLRLSCAASGFSISDYYMAWVRQAPGKGLEWVANINYDGTNTYYADSVKGRFTISRDNSKNTLYLQMNSLRAEDTAVYYCVRSYYYYGMEYWGQGTTVTVSS VL: DIQMTQSPSSLSASVGDRVTITCRASHDVSTAVAWYQQKPGKAPKLLIYSASYRYTGVPSRFSGSGSGTDFTLTISSLQPEDFATYYCQQHYRIPLTFGQGTKLEIK",5.34

# Reference: patent publication US20250042992A1 (University of California, published 2025)
